Experiments:
Assay in all cases: LC/MS-MS of diol formed
Format in all cases: biochemical, Homo sapiens
LC/MS-MS of diol formed [1] = substrate: CCCCC/C=C\C[C@@H]1O[C@H]1/C=C/C(O)C/C=C\CCCC(=O)O; details: Tris/HCl 0.1 M pH 9.0, 0.1 mg/mL BSA, 37 °C
Text: (§1) LC/MS-MS of diol formed on mEH

LC/MS-MS of diol formed [2] = substrate: CCCCCC1OC1C/C=C\C/C=C\C/C=C\CCCC(=O)O; details: Tris/HCl 0.1 M pH 9.0, 0.1 mg/mL BSA, 37 °C
Text: as §1

LC/MS-MS of diol formed [3] = substrate: CCCCC/C=C\C/C=C\CC1OC1C/C=C\CCCC(=O)O; details: Tris/HCl 0.1 M pH 9.0, 0.1 mg/mL BSA, 37 °C
Text: as §1

LC/MS-MS of diol formed [4] = substrate: CC/C=C\C/C=C\CC1OC1C/C=C\C/C=C\C/C=C\CCC(=O)O; details: Tris/HCl 0.1 M pH 9.0, 0.1 mg/mL BSA, 37 °C
Text: as §1

LC/MS-MS of diol formed [5] = substrate: CCCCC/C=C\C[C@@H]1O[C@H]1/C=C/C(O)C/C=C\CCCC(=O)O; details: sodium phosphate 0.1 M pH 7.4, 0.1 mg/mL BSA, 37 °C, crude membrane extract
Text: (§2) LC/MS-MS of diol formed on EH3

LC/MS-MS of diol formed [6] = substrate: CCCCCC1OC1C/C=C\C/C=C\C/C=C\CCCC(=O)O; details: sodium phosphate 0.1 M pH 7.4, 0.1 mg/mL BSA, 37 °C, crude membrane extract
Text: as §2

LC/MS-MS of diol formed [7] = substrate: CCCCC/C=C\C/C=C\CC1OC1C/C=C\CCCC(=O)O; details: sodium phosphate 0.1 M pH 7.4, 0.1 mg/mL BSA, 37 °C, crude membrane extract
Text: as §2

LC/MS-MS of diol formed [8] = substrate: CC/C=C\C/C=C\CC1OC1C/C=C\C/C=C\C/C=C\CCC(=O)O; details: sodium phosphate 0.1 M pH 7.4, 0.1 mg/mL BSA, 37 °C, crude membrane extract
Text: as §2

B1: mEH (Homo sapiens) (protein)
chain: MWLEILLTSVLGFAIYWFISRDKEETLPLEDGWWGPGTRSAAREDDSIRPFKVETSDEEIHDLHQRIDKFRFTPPLEDSCFHYGFNSNYLKKVISYWRNEFDWKKQVEILNRYPHFKTKIEGLDIHFIHVKPPQLPAGHTPKPLLMVHGWPGSFYEFYKIIPLLTDPKNHGLSDEHVFEVICPSIPGYGFSEASSKKGFNSVATARIFYKLMLRLGFQEFYIQGGDWGSLICTNMAQLVPSHVKGLHLNMALVLSNFSTLTLLLGQRFGRFLGLTERDVELLYPVKEKVFYSLMRESGYMHIQCTKPDTVGSALNDSPVGLAAYILEKFSTWTNTEFRYLEDGGLERKFSLDDLLTNVMLYWTTGTIISSQRFYKENLGQGWMTQKHERMKVYVPTGFSAFPFELLHTPEKWVRFKYPKLISYSYMVRGGHFAAFEEPELLAQDIRKFLSVLERQ
Protein B1 has a Km (LC/MS-MS of diol formed [1]) of 51 ± 14 µM, a Vmax (LC/MS-MS of diol formed [1]) of 0.023 µmol/min/mg and a kcat (LC/MS-MS of diol formed [1]) of 0.019 ± 0.003 s⁻¹. The kcat/Km (LC/MS-MS of diol formed [1]) was 370 ± 60 M⁻¹ s⁻¹, the Km (LC/MS-MS of diol formed [2]) was 80 ± 6 µM and the Vmax (LC/MS-MS of diol formed [2]) was 0.053 µmol/min/mg. It also gave a kcat (LC/MS-MS of diol formed [2]) of 0.044 ± 0.003 s⁻¹, a kcat/Km (LC/MS-MS of diol formed [2]) of 550 ± 10 M⁻¹ s⁻¹ and a Km (LC/MS-MS of diol formed [3]) of 2.5 ± 0.6 µM. For the same protein, the Vmax (LC/MS-MS of diol formed [3]) was 0.038 µmol/min/mg, the kcat (LC/MS-MS of diol formed [3]) was 0.032 ± 0.002 s⁻¹ and the kcat/Km (LC/MS-MS of diol formed [3]) was 13000 ± 1000 M⁻¹ s⁻¹. For the same protein, the Km (LC/MS-MS of diol formed [4]) was 2.9 ± 0.4 µM, the Vmax (LC/MS-MS of diol formed [4]) was 0.445 µmol/min/mg and the kcat (LC/MS-MS of diol formed [4]) was 0.37 ± 0.01 s⁻¹. For the same protein, the kcat/Km (LC/MS-MS of diol formed [4]) was 130000 ± 20000 M⁻¹ s⁻¹.

B2: EH3 (Homo sapiens) (protein)
chain: MPELVVTALLAPSRLSLKLLRAFMWSLVFSVALVAAAVYGCIALTHVLCRPRRGCCGRRRSASPACLSDPSLGEHGFLNLKSSGLRLHYVSAGRGNGPLMLFLHGFPENWFSWRYQLREFQSRFHVVAVDLRGYGPSDAPRDVDCYTIDLLLVDIKDVILGLGYSKCILVAHDWGALLAWHFSIYYPSLVERMVVVSGAPMSVYQDYSLHHISQFFRSHYMFLFQLPWLPEKLLSMSDFQILKTTLTHRKTGIPCLTPSELEAFLYNFSQPGGLTGPLNYYRNLFRNFPLEPQELTTPTLLLWGEKDTYLELGLVEAIGSRFVPGRLEAHILPGIGHWIPQSNPQEMHQYMWAFLQDLLD
For B2, the Km (LC/MS-MS of diol formed [5]) was 14 ± 1 µM, the Vmax (LC/MS-MS of diol formed [5]) was 0.017 µmol/min/mg and the kcat (LC/MS-MS of diol formed [5]) was 0.014 ± 0.001 s⁻¹. The kcat/Km (LC/MS-MS of diol formed [5]) was 1010 ± 30 M⁻¹ s⁻¹, the Km (LC/MS-MS of diol formed [6]) was 76 ± 16 µM and the Vmax (LC/MS-MS of diol formed [6]) was 0.027 µmol/min/mg. The kcat (LC/MS-MS of diol formed [6]) was 0.018 ± 0.003 s⁻¹, the kcat/Km (LC/MS-MS of diol formed [6]) was 240 ± 10 M⁻¹ s⁻¹ and the Km (LC/MS-MS of diol formed [7]) was 10 ± 0.5 µM. It also gave a Vmax (LC/MS-MS of diol formed [7]) of 0.044 µmol/min/mg, a kcat (LC/MS-MS of diol formed [7]) of 0.03 ± 0.001 s⁻¹ and a kcat/Km (LC/MS-MS of diol formed [7]) of 3000 ± 200 M⁻¹ s⁻¹. It also gave a Km (LC/MS-MS of diol formed [8]) of 4.3 ± 1.2 µM, a Vmax (LC/MS-MS of diol formed [8]) of 0.121 µmol/min/mg and a kcat (LC/MS-MS of diol formed [8]) of 0.08 ± 0.01 s⁻¹. It also gave a kcat/Km (LC/MS-MS of diol formed [8]) of 19000 ± 3000 M⁻¹ s⁻¹.

Reference: paper PMC8125816, “Relative Importance of Soluble and Microsomal Epoxide Hydrolases for the Hydrolysis of Epoxy-Fatty Acids in Human Tissues” (International Journal of Molecular Sciences, 2021)
